Assay results taken from patent US12545899B2, “Luciferase enzymes for use with thermostable luciferins in bioluminescent assays” (Promega Corporation, priority 2018, dated 2026).
Changes are numbered by the printed parent chain. Numbers in names are those of the source.

What was measured:
[1] = Kinetic analysis of thermostable variants with CS0280 (Tables 13, 14); format: biochemical; settings: 2 mM ATP
[2] = Kinetic analysis of thermostable variants with CS0280 (Table 10); format: biochemical
Experimental: (§1) Experiments were also conducted to evaluate the activities (i.e. Vmax and Km) of the various thermostable luciferase variants of Ppe (SEQ ID NO: 1) described above.
(§2) Tables 10 and 11 include representative results of kinetic analysis of the thermostable variants with D/L luciferin, CS0333, and CS0280. […] MK0135 and MK0137 have amino acid substitutions that improve thermostability relative to MK0133 and MK0134, respectively, while retaining activity on the luciferin analogs CS0333 and CS0280.

[3] = Luminescence at 1 mM CS0333 (Table 11); format: biochemical; settings: 1 mM substrate, 1 mM ATP
Description: as §2

[4] = Differential scanning fluorimetry (DSF) analysis; format: physicochemical
Summary of the method: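 Thermal melt with 5× final Sypro Orange: ramp 1° C/min from 30 to 95° C, reading each 60 s, derivative of fluorescence plotted by temperature. Luciferase variants were in 20 mM HEPES pH 7.5, 200 mM NaCl, 1 mM EDTA; other enzymes in 50 mM HEPES pH 7.5, 100 mM NaCl, 2 mM EDTA.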

[5] = Kinetic analysis of thermostable variants with CS0333 (Tables 13, 14); format: biochemical; settings: 2 mM ATP
[6] = Kinetic analysis of thermostable variants with CS0333 (Table 10); format: biochemical
Experimental: as §1, §2

[7] = Kinetic analysis of thermostable variants with D/L-luciferin (Tables 13, 14); format: biochemical; settings: 2 mM ATP
[8] = Kinetic analysis of thermostable variants with D/L-luciferin (Table 10); format: biochemical
Experimental: as §1, §2

[9] = Luminescence at 1 mM CS0280 (Table 11); format: biochemical; settings: 1 mM substrate, 1 mM ATP
Description: as §2

[10] = Luminescence at 1 mM D/L-luciferin (Table 11); format: biochemical; settings: 1 mM substrate, 1 mM ATP
Description: as §2

[11] = E. coli lysate screen of epPCR/DNA shuffling variants with CS0333; format: biochemical; settings: Detection Reagent, 1 mM ATP, 500 μM substrate, 3 mins
Experimental: (§3) These experiments included lysing E. coli cells expressing each luciferase enzyme variant in Detection Reagent containing 1 mM ATP+500 μM substrate. The cell lysate was incubated at room temperature for 3 mins and luminescence was read. The raw luminescence reading was normalized to the on-plate luminescence of ATG-2889, which was used as a control in this screen.

[12] = E. coli lysate screen of epPCR/DNA shuffling variants with CS0280; format: biochemical; settings: Detection Reagent, 1 mM ATP, 500 μM substrate, 3 mins
Experimental: as §3

[13] = Effect of individual mutations: maximum luminescence with CS0333; format: biochemical; settings: 10 fM to 1 mM CS0333; Detection Reagent (DR) buffer
Experimental: Experiments were also conducted to evaluate and compare the activities of the various luciferase enzyme variants, including the effects of individual amino acid mutations. To evaluate the effect of individual mutations on luciferase enzyme variants, 0.005 mg/ml luciferase enzyme variant was mixed with 1 mM ATP+10 fM to 1 mM CS0333 in Detection Reagent (DR) buffer.

B1: MK0137: SEQ ID NO: 105; H244W+S193A+N228D+L305F+S306P+I109V+C38R+F55I+Y108F+A316W+Y339M+T342S+V348I (protein)
chain: MADKNILYGPEPFYPLEDGTAGEQMFDALSRYAAIPGRIALTNAHTKENVLYEEILKLSCRLAESFKKYGLKQNDTIAVCSENSLQFFLPVIASLYLGIIVAPVNDKFVERELIHSLGIVKPRIVFCSKNTFQKVLNVKSKLKSIETIIILDLNEDLGGYQCLNNFISQNSDSNLDVKKFKPYSFNRDDQVAAIMFSSGTTGLPKGVMLTHKNIVARFSIAKDPTFGDAINPTSAILTVIPFHWGFGMMTTLGYFTCGFRVVLMHTFEEKLFLQSLQDYKVESTLLVPTLMAFLAKSALVEKYDFPHLKEIASGGWPLSKEIGEMVKKRFKLNFVRQGMGLTEITSAVLITPKGDAKPGSTGKIVPLHAVKVVDPTTGKILGPNEPGELYFKGPMKMKGYYNNEEATKAIIDNDGWLRSGDIAYYDNDGHFYIVDRLKSLIKYKGYQVAPAEIEGILLQHPYIVDAGVTGIPDEAAGELPAAGVVVQTGKYLNEQIVQDYVASQVSTAKWLRGGVKFLDEIPKGSTGKIDRKVLRQMLEKHTNGHHHHHHHH
Km ([1]; BrightGlo Buffer): 4.08 µM | Vmax (RLU) ([1]; BrightGlo Buffer): 825,876 RLU | Km ([1]; Detection Reagent Buffer): 535 µM | Vmax (RLU) ([1]; Detection Reagent Buffer): 88,972 RLU | Km ([2]; BrightGlo Buffer): 2.92 µM | Vmax (RLU) ([2]; BrightGlo Buffer): 2,255,088 RLU | Km ([2]; Detection Reagent Buffer): 18.9 µM | Vmax (RLU) ([2]; Detection Reagent Buffer): 109,120 RLU | Vmax (RLU) CS0333 BrightGlo Buffer ([3]; BrightGlo Buffer): 3,882,620 RLU | Vmax (RLU) CS0333 Detection Reagent Buffer ([3]; Detection Reagent Buffer): 3,127,710 RLU | DSF Tm (° C.) ([4]; Table 9B): 69 °C | Km ([5]; BrightGlo Buffer): 4.27 µM | Vmax (RLU) ([5]; BrightGlo Buffer): 3,236,246 RLU | Km ([5]; Detection Reagent Buffer): 18.8 µM | Vmax (RLU) ([5]; Detection Reagent Buffer): 668,831 RLU | Km ([6]; BrightGlo Buffer): 7.17 µM | Vmax (RLU) ([6]; BrightGlo Buffer): 5,453,269 RLU | Km ([6]; Detection Reagent Buffer): 80.5 µM | Vmax (RLU) ([6]; Detection Reagent Buffer): 3,679,125 RLU | Km ([7]; BrightGlo Buffer): 0.0835 µM | Vmax (RLU) ([7]; BrightGlo Buffer): 253,978 RLU | Km ([7]; Detection Reagent Buffer): 0.306 µM | Vmax (RLU) ([7]; Detection Reagent Buffer): 29,013 RLU | Km ([8]; BrightGlo Buffer): 0.0368 µM | Vmax (RLU) ([8]; BrightGlo Buffer): 279,889 RLU | Km ([8]; Detection Reagent Buffer): 0.196 µM | Vmax (RLU) ([8]; Detection Reagent Buffer): 40,917 RLU | Vmax (RLU) CS0280 BrightGlo Buffer ([9]; BrightGlo Buffer): 1,931,470 RLU | Vmax (RLU) CS0280 Detection Reagent Buffer ([9]; Detection Reagent Buffer): 117,973 RLU | Vmax (RLU) D/L-luciferin BrightGlo Buffer ([10]; BrightGlo Buffer): 326,347 RLU | Vmax (RLU) D/L-luciferin Detection Reagent Buffer ([10]; Detection Reagent Buffer): 48,315 RLU

B2: MK0135: SEQ ID NO: 103; H244W+S193A+N228D+L305F+S306P+I109V+C38R+F55I+A316W+T342S+V348I (protein)
chain: B1 chain with I344A
Km ([2]; BrightGlo Buffer): 22 µM | Vmax (RLU) ([2]; BrightGlo Buffer): 343,822 RLU | Km ([2]; Detection Reagent Buffer): 150 µM | Vmax (RLU) ([2]; Detection Reagent Buffer): 15,983 RLU | DSF Tm (° C.) ([4]; Table 9B): 78 °C | Km ([6]; BrightGlo Buffer): 43.4 µM | Vmax (RLU) ([6]; BrightGlo Buffer): 4,782,661 RLU | Km ([6]; Detection Reagent Buffer): 509 µM | Vmax (RLU) ([6]; Detection Reagent Buffer): 1,018,125 RLU | Km ([8]; BrightGlo Buffer): 0.157 µM | Vmax (RLU) ([8]; BrightGlo Buffer): 490,914 RLU | Km ([8]; Detection Reagent Buffer): 0.746 µM | Vmax (RLU) ([8]; Detection Reagent Buffer): 93,531 RLU

B3: MK0133: SEQ ID NO: 101; H244W+T344I+I396K+S193A+N228D+L305F+S306P+I109V+C38R+F55I+A316W+T342S+V348I (protein)
chain: B1 chain
Km ([2]; BrightGlo Buffer): 5.36 µM | Vmax (RLU) ([2]; BrightGlo Buffer): 2,774,469 RLU | Km ([2]; Detection Reagent Buffer): 41.6 µM | Vmax (RLU) ([2]; Detection Reagent Buffer): 266,359 RLU | DSF Tm (° C.) ([4]; Table 9B): 59 °C | Km ([6]; BrightGlo Buffer): 14 µM | Vmax (RLU) ([6]; BrightGlo Buffer): 27,149,096 RLU | Km ([6]; Detection Reagent Buffer): 77.4 µM | Vmax (RLU) ([6]; Detection Reagent Buffer): 21,861,957 RLU | Km ([8]; BrightGlo Buffer): 0.13 µM | Vmax (RLU) ([8]; BrightGlo Buffer): 1,361,878 RLU | Km ([8]; Detection Reagent Buffer): 0.993 µM | Vmax (RLU) ([8]; Detection Reagent Buffer): 1,545,274 RLU

B4: MK0134: SEQ ID NO: 102; H244W+T344A+I396K+S193A+N228D+L305F+S306P+I109V+C38R+F55I+Y108F+A316W+Y339M (protein)
chain: B1 chain with F108Y, M339Y, T342S, V348I
Km ([2]; BrightGlo Buffer): 1.21 µM | Vmax (RLU) ([2]; BrightGlo Buffer): 15,499,640 RLU | Km ([2]; Detection Reagent Buffer): 6.12 µM | Vmax (RLU) ([2]; Detection Reagent Buffer): 1,208,016 RLU | DSF Tm (° C.) ([4]; Table 9B): 57 °C | Km ([6]; BrightGlo Buffer): 2.24 µM | Vmax (RLU) ([6]; BrightGlo Buffer): 11,167,451 RLU | Km ([6]; Detection Reagent Buffer): 26.5 µM | Vmax (RLU) ([6]; Detection Reagent Buffer): 9,278,637 RLU | Km ([8]; BrightGlo Buffer): 0.0257 µM | Vmax (RLU) ([8]; BrightGlo Buffer): 377,267 RLU | Km ([8]; Detection Reagent Buffer): 0.161 µM | Vmax (RLU) ([8]; Detection Reagent Buffer): 430,060 RLU

B5: C4598F8: SEQ ID NO: 60; H244W+T344A+I396K+I109V+V262A+V287I+K309N (protein)
chain: MADKNILYGPEPFYPLEDGTAGEQMFDALSRYAAIPGCIALTNAHTKENVLYEEFLKLSCRLAESFKKYGLKQNDTIAVCSENSLQFFLPVIASLYLGIIVAPVNDKYVERELIHSLGIVKPRIVFCSKNTFQKVLNVKSKLKSIETIIILDLNEDLGGYQCLNNFISQNSDSNLDVKKFKPYSFNRDDQVASIMFSSGTTGLPKGVMLTHKNIVARFSIAKDPTFGNAINPTSAILTVIPFHWGFGMMTTLGYFTCGFRVALMHTFEEKLFLQSLQDYKVESTLLIPTLMAFLAKSALVEKYDLSHLNEIASGGAPLSKEIGEMVKKRFKLNFVRQGYGLTEATSAVLITPKGDAKPGSTGKIVPLHAVKVVDPTTGKILGPNEPGELYFKGPMKMKGYYNNEEATKAIIDNDGWLRSGDIAYYDNDGHFYIVDRLKSLIKYKGYQVAPAEIEGILLQHPYIVDAGVTGIPDEAAGELPAAGVVVQTGKYLNEQIVQDYVASQVSTAKWLRGGVKFLDEIPKGSTGKIDRKVLRQMLEKHTNGHHHHHHHH
Normalized luminescence (Mutant RLU/ATG2889 RLU) with CS0333 [11]: 4.91 | Normalized luminescence (Mutant RLU/ATG2889 RLU) with CS0280 [12]: 5.88

B6: MK0127: SEQ ID NO: 93; H244W+T344A+I396K+S193A+L305F+S306P+I109V (protein)
chain: B1 chain with R38C, I55F, K107N, F108Y, T289S, W316A, M339Y, I344A
DSF Tm (° C.) ([4]; Table 9A): 66 °C | Vmax (RLU) with CS0333 [13]: 2,293,340 RLU

B7: MK0109: SEQ ID NO: 76; S193A (protein)
chain: B1 chain with R38C, I55F, F108Y, V109I, W316A, M339Y, I344A
DSF Tm (° C.) ([4]; Table 9A): 77 °C | Vmax (RLU) with CS0333 [13]: 1,114 RLU

B8: C4629G5: SEQ ID NO: 67; H244W+T344A+I396K+I236V (protein)
chain: B5 chain with V109I, I236V, A262V, I287V, N309K
Normalized luminescence (Mutant RLU/ATG2889 RLU) with CS0333 [11]: 2.26 | Normalized luminescence (Mutant RLU/ATG2889 RLU) with CS0280 [12]: 5.06

B9: C4601C8: SEQ ID NO: 61; H244W+T344A+I396K+S193P (protein)
chain: B5 chain with V109I, S193P, A262V, I287V, N309K
Normalized luminescence (Mutant RLU/ATG2889 RLU) with CS0333 [11]: 3.32 | Normalized luminescence (Mutant RLU/ATG2889 RLU) with CS0280 [12]: 4.53

B10: MK0108: SEQ ID NO: 75; I109V (protein)
chain: B5 chain with V109I, W244H, A262V, I287V, N309K, A344T, K396L
DSF Tm (° C.) ([4]; Table 9A): 78 °C | Vmax (RLU) with CS0333 [13]: 1,300 RLU

B11: C4608E7: SEQ ID NO: 63; H244W+T344A+I396K+K121N+N228D+V287I (protein)
chain: B5 chain with V109I, K121N, N228D, A262V, N309K
Normalized luminescence (Mutant RLU/ATG2889 RLU) with CS0333 [11]: 6.86 | Normalized luminescence (Mutant RLU/ATG2889 RLU) with CS0280 [12]: 5.26
